T1: human APRIL protein (human, UniProt O75888 105-250, limits assumed)
T1 construct: Bought protein; also called recombinant APRIL protein
T1 sequence (looked up): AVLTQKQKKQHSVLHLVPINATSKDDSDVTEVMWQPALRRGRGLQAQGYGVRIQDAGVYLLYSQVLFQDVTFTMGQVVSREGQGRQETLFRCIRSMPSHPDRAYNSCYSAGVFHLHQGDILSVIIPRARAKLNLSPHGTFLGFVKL

T2: cynomolgus BLyS (full length, arginine 132 mutated to histidine) on CHO-K1 cells (cynomolgus, UniProt Q9Y275 1-285 (human entry))
T2 construct: also called cyno BLyS; CHO-K1 cynoBLyS
T2 chain: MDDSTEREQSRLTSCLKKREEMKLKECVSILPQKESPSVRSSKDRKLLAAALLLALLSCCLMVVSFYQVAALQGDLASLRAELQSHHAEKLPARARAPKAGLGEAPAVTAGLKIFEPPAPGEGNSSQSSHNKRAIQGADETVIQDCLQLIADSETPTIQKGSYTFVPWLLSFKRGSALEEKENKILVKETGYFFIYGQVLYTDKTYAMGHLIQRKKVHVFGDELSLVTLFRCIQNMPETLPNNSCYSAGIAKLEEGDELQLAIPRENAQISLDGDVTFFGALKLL

B1: 78C11D2D12 (antibody, V domains shown)
VH: QVQLQQSGAELVRPGTSVKISCKASGYAFTNYWLGWVKQRPGHGLEWIGDIYPGSGNTYYNEKFKGKATLTADKSSSTAYMQLSSLTSEDSAVFFCAAYLYAMDYWGQGTSVTVSS
VL: QIVLTQSPAIMSASPGEKVTITCSASSSVSYMHWFQQKPGTSPKLWIYSASNLASGVPARFSGSGSGTSYSLTISRMEAEDAATYYCQQRGSYPFTFGSGTKLEIK
notes: Mouse hybridoma antibody purified on Protein G
B2: 2-1G11 (antibody, human IgG1, V domains shown)
VH: EVQLVESRGGVVQPGRSLRLSCAASGFTFSSYGMHWVRQAPGKGLEWVAVISYDGSNKYYADSVKGRFTISRDNSKNTLYLQMNSLRAEDAAVYYCARDRVDILTGYSIYGMDVWGQGTTVTVSS
VL: EIVMTQSPATLSLSPGERATLSCRASQSVSSYLAWYQQKPGQAPRLLIYDASKRATGIPARFSGSGSGTDFTLTISSLEPEDFAVYYCQQRSNWPLTFGGGTKVEIK
B3: 89A2G5E7 (antibody, V domains shown)
VH: QVQLKESGPGLVAPSQSLSITCTVSGLSLNSHDISWIRQPPGKGLEWLGVIWSGGGTKYNSAFMSRLSISKDNSKSQVFLKMNSLHTDDTAIYYCVRTPSMITYSAMDYWGQGTSVTVSS
VL: EIVLTQSPALMAASPGEKVTITCSVSSSISSRNLHWYQQKSQTSPKAWIHATSNLASGVPVRFSGSGSGTSYSLTISSMEAEDAATYYCQQWSSYPLTFGSGTKLEIK
notes: as for B1
B4: 35E6F7C3 (antibody, V domains shown)
VH: EVQLQQSGAELVKPGASVKLSCTAAGFNIQDTYIHWVKQRPEQGLEWIGRIDPANANTVYDPKFQGKATITADTSSNTAYLQVSSLTSEDTAVYYCASPVITAGFAYWGQGTLVTVSA
VL: QIVLTQSPAIMSASPGEKVTMTCGASSSVNYVHWYQQKSGTSPKRWIYDTSKLASGVPARFSGSGSGTSYSLTISSMEAEDAATYYCQQWTRSPLTFGAGTKVELK
notes: as for B1
B5: 93C6F10D3 (antibody, V domains shown)
VH: EVQLVESGGGLVTPGGSLKLSCVASGFAFSTYGMSWVRQTPERRLEWVAYISGGGGSIYYPDSVKGRFTISRDNAKNILYLQMSSLKSEDTAMYHCTRHPDLLLRYDYALDHWGQGTSVTVSS
VL: DIQMTQSPASLSASVGETVTITCRASENIHIYLAWYQQKQGKSPQLLVYNGKTLADGVPSRFSGSGSGTQYSLKINTLQPEDFGNYYCQHFWNSTWTFGGGTKLEIK
notes: as for B1

T3 sequence (Q9Y275 other isoform, or with tags, fused parts or gaps limits assumed, change not shown): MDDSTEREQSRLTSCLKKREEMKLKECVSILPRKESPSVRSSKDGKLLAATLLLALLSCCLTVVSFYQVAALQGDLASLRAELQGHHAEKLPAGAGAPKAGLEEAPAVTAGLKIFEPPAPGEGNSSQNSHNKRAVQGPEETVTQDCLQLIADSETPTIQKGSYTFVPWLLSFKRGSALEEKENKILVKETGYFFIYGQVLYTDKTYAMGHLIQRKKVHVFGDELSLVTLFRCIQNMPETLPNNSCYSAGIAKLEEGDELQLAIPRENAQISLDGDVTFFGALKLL

The first assay has as its target T1, human APRIL protein. The experiment in a line: ELISA, coated APRIL; antibody 13.3 nM. The procedure: (§1) To test whether the BLyS antibody cross-reacted with human APRIL protein, APRIL protein (purchased from R & D Systems) was first diluted to a final concentration of 1.0 μg/mL with PBS, and then 50 μL of which per well was aliquoted into a 96-well ELISA plate, and the plate was subsequently sealed with plastic film and incubated at 4° C. overnight. On the next day the plate was rinsed four times with the plate washing buffer [PBS buffer containing 0.0500 (v/v) Tween20] and a blocking solution [PBS buffer containing 0.05 (v/v) Tween20 and 1 (w/w) BSA] was added, then the protein was blocked at 37° C. for 2 hours. The blocking solution was removed and 100 μL per well of the lead antibodies prepared in Embodiment 1 and 2 were added in. After incubation for 1 hour at 37° C., the plate was rinsed four times with the plate washing buffer [PBS buffer containing 0.05 (v/v) Tween20]. HRP-labeled (horseradish peroxidase) secondary antibody (purchased from Sigma) was added in and incubated at 37° C. for 1 hour. The plate was then rinsed four times with the plate washing buffer [PBS buffer containing 0.050 (v/v) Tween20]. 100 μL of TMB substrate was aliquoted into each well and after incubation at room temperature for 5 minutes, 100 μL of stop solution (1.0 N HCl) was aliquoted into each well. A₄₅₀ₙₘ values were read via an ELISA plate reader (SpectraMax M5e purchased from Molecular Devices) and the results were shown in FIGS. 6A-6B and Table 11. […] As used herein, the IgG control is human IgG and the data in the table is GD number at 450 nm.
On to B1, for which the OD450 nm was 0.0703.

Molecule B2 yielded an OD450 nm of 0.137.

In turn, B3 showed an OD450 nm of 0.0973.

The molecule B4 yielded an OD450 nm of 0.0567.

The target in a further assay is T1, human APRIL protein. Nature of the assay: ELISA, coated APRIL; antibody 2.67 nM. The protocol: as §1
Molecule B1 displayed an OD450 nm of 0.0613.

As for B2, the OD450 nm was found to be 0.0901.

With B3, the OD450 nm is 0.0614.

Regarding B4, the OD450 nm was 0.0561.

In a further assay the target is T1, human APRIL protein. Nature of the assay: ELISA, coated APRIL; antibody 66.7 nM. The procedure: as §1
B1 showed an OD450 nm of 0.138.

As for B2, the OD450 nm was 0.296.

As to B3, the OD450 nm stood at 0.196.

B4 gave an OD450 nm of 0.0703.

For another assay, the target named is T1, human APRIL protein. The experiment in a line: ELISA, coated APRIL; antibody 0.107 nM. The protocol: as §1
Regarding B1, the OD450 nm was 0.0549.

Consider B2, for which the OD450 nm is 0.0699.

In turn, B3 yielded an OD450 nm of 0.0548.

Consider B4, for which the OD450 nm came out at 0.0537.

In the next assay the target is T1, human APRIL protein. The experiment in a line: ELISA, coated APRIL; antibody 0.534 nM. The protocol: as §1
In turn, B1 showed an OD450 nm of 0.0553.

B2 registered an OD450 nm of 0.0668.

B3 returned an OD450 nm of 0.0565.

The molecule B4 gave an OD450 nm of 0.0544.

A further assay addresses T1, human APRIL protein. The experiment in a line: ELISA, coated APRIL; antibody 0.0213 nM. The procedure:
as §1
On to B1, for which the OD450 nm was 0.0534.

Turning to B2, the OD450 nm was found to be 0.0733.

B3 came in with an OD450 nm of 0.0547.

Consider B4, for which the OD450 nm was 0.0532.

The target of another assay is T1, human APRIL protein. The experiment in a line: ELISA, coated APRIL; antibody 0.00427 nM. The protocol:
as §1
B1 gave an OD450 nm of 0.0564.

In the case of B2, the OD450 nm was found to be 0.107.

Consider B3, for which the OD450 nm was determined as 0.0578.

B4 gave an OD450 nm of 0.0553.

A further assay concerns the target T1, human APRIL protein. Nature of the assay: ELISA, coated APRIL; antibody 0 nM (blank). The protocol:
as §1
In turn, B1 had an OD450 nm of 0.0565.

Regarding B2, the OD450 nm was 0.0847.

B3 returned an OD450 nm of 0.0655.

In turn, B4 came in with an OD450 nm of 0.0542.

Another assay concerns the target T3, human BLyS (full length, arginine 132 mutated to histidine) on CHO-K1 cells (human, UniProt Q9Y275 1-285).
T3 construct: also called hBLyS; CHO-K1 hBLyS
The experiment in a line: flow cytometry (FACS) on CHO-K1 hBLyS cells, Alexa 488 secondary antibody. The protocol:
(§2) The medium was aspirated completely, and the cells were rinsed once with PBS buffer (purchased from Invitrogen) and then treated with cell dispersion solution (TrypLE™ Express Enzyme, purchased from Life technology) and collected. The detailed steps are as follows: the cells were rinsed once with PBS buffer, after counting, the cells were diluted to 2×10⁶ cells/ml with PBS buffer, blocked with 2% (w/w) fetal bovine serum and incubated on ice for 30 minutes. 200 μL of which per well was aliquoted into a 96-well FACS plate and centrifuged at 2000 rpm at 4° C., then each 100 μL of the lead antibodies obtained from Embodiment 1 and 2 were aliquoted into each well and incubated on ice for 1 hour. […] After centrifuged and rinsed 3 times with FACS buffer, cells were suspended with 200 μL of FACS buffer and the results were detected and analyzed by FACS (FACS Calibur, purchased from BD). It was shown in Tables 12-13 that the lead antibody could bind to human BLyS protein on the cell surface and the lead antibody could cross-react with cynomolgus BLyS. The data in the table is MFI, the average fluorescence intensity of the cell population.
B5: the “EC50 (read off the curve)” value is about 0.1 nM.

With B1, the “EC50 (read off the curve)” value is about 0.2 nM.

B2: the “EC50 (read off the curve)” value is about 0.09 nM.

Take B3: the concentration for a half-maximal effect (EC50 (read off the curve)) is about 0.7 nM.

The next assay concerns the target T1, human APRIL protein. The experiment in a line: ELISA: APRIL coated at 1.0 µg/mL, antibody titrated, HRP secondary antibody. The procedure:
as §1
In the case of B1, the binding result was “no binding (tested: 66.7 nM)”.

Take B2: the binding result was “no binding (tested: 66.7 nM)”.

Turning to B3, the binding result is given as “no binding (tested: 66.7 nM)”.

For the molecule B4, the binding result is reported as “no binding (tested: 66.7 nM)”.

The next assay addresses T2, cynomolgus BLyS (full length, arginine …). Nature of the assay: flow cytometry (FACS) on CHO-K1 cynoBLyS cells, Alexa 488 secondary antibody. The procedure: as §2
Consider B5, for which the “EC50 (read off the curve)” value was about 0.1 nM.

B1: the “EC50 (read off the curve)” value was about 0.2 nM.

In the case of B2, the “EC50 (read off the curve)” value was about 0.1 nM.

For B3, the “EC50 (read off the curve)” value was about 0.7 nM.

For the molecule B4, the “EC50 (read off the curve)” value is about 0.7 nM.

The values above are taken from US20210347873A1 (SHANGHAI PHARMAEXPLORER, published 2021).
